Biological target: Cx43 EL1 peptide extracellular loop 1 (EL1) (Mus musculus, UniProt P23242)
Experiment: SPR

Cx43 EL1 peptide extracellular loop 1 (EL1), sequence (P23242 45-76): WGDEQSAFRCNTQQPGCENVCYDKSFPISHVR

Kd: 20 µM
Binder: QPGCEN [P4 peptide (Cx43 mimetic)]

From paper PMC5760527 (2018)
